The target of experiment [1] is full length human PAR-2 (human) (UniProt P55085). The experiment in a line: cell ELISA, 10 ug/ml antibody. Background: ELISA stands for enzyme-linked immunosorbent assay.
The target is the same in experiment [2]. Put plainly: cell-based or functional assay.
In another experiment the target is monkey PAR-2 (monkey). The experiment in a line: cell-based or functional assay.
Experiment [3] has as its target full length mouse PAR-2 (mouse) (UniProt P55086). The experiment in a line: cell-based or functional assay.

Numbering of substitutions follows the chain as printed.

Sequence of full length mouse PAR-2 (mouse) (P55086 other isoform, or with tags, fused parts or gaps limits assumed): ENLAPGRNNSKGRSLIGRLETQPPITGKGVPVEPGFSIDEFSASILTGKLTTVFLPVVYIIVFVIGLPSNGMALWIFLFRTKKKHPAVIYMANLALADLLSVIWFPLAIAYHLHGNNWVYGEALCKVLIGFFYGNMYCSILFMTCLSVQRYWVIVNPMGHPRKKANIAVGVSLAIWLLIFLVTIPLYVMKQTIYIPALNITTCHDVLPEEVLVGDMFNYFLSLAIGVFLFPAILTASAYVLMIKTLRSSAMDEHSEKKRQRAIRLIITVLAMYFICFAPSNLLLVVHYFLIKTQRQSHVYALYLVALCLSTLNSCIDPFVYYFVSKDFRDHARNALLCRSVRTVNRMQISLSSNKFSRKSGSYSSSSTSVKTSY
Sequence of full length human PAR-2 (human) (P55085 26-397 G138A limits assumed): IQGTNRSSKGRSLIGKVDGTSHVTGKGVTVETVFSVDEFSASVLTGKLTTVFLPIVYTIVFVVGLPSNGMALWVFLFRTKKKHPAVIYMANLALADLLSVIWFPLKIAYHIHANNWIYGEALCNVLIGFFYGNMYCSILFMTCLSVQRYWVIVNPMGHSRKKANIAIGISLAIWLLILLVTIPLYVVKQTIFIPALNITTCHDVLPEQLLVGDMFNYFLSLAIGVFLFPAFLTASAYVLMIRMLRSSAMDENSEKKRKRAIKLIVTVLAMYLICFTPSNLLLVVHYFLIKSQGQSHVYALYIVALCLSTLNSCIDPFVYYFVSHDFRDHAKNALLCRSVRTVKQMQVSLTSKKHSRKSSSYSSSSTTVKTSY

B1: H2M609N (antibody, V domains shown)
VH: EVQLVESGGGLVQPGRSLRLSCAASGFTFDDYAMHWVRQAPGKGLEWVSGISWNSGSKGFADSVKGRFTISRDNAKNSLYLQMNSLRVEDTALYYCAKENWSFDYWGQGTLVTVSS
VL: DIVMTQTPLSSPVTLGQPASISCRSSQSLVHSDGNIYLSWLQQRPGQPPRLLIYKISNRFSGVPDRFSGSGAGTDFTLKISRVEAEDVGIYYCMQASHFPYTFGQGTKLEIK
Turning to B1, in experiment [1], the A450 ratio (293/D9/hPAR-2rec to 293/D9 cells) was 1.54.

B2: H1M619N (antibody, V domains shown)
VH: B1 VH with P14A, K58R, F60Y, Y80H, N84Y, V88A
VL: B1 VL with I36T, N58Y, E84A, A85T, I90V, S97T, H98Q, F99L
For B2, the A450 ratio (293/D9/hPAR-2rec to 293/D9 cells) in experiment [1] turned out to be 1.51.

B3: Human Kallikrein 14 (enzyme, UniProt Q9P0G3 25-251, looked up)
chain: IIGGHTCTRSSQPWQAALLAGPRRRFLCGGALLSGQWVITAAHCGRPILQVALGKHNLRRWEATQQVLRVVRQVTHPNYNSRTHDNDLMLLQLQQPARIGRAVRPIEVTQACASPGTSCRVSGWGTISSPIARYPASLQCVNINISPDEVCQKAYPRTITPGMVCAGVPQGGKDSCQGDSGGPLVCRGQLQGLVSWGMERCALPGYPGVYTNLCKYRSWIEETMRDK
Regarding B3, the EC50 of activator, NF-kB-luciferase in experiment [2] was determined as 5 nM; in the experiment with monkey PAR-2 (monkey), 6.3 nM; in experiment [3], 8 nM.

B4: H4H581P (antibody, human IgG4, V domains shown)
VH: QVQLVESGGGVVQPGRSLRLSCVASGFTFSRYGIHWVRQAPGKGLEWVIVISYDGINKYYADSVKGRFTISRDNSKNTVYLQMNSLRAEDTAVYYCAKGDFWSGYFDYWGQGTLVTVSS
VL: DIVMTQTPLSSPVTLGQPASISCRSSQSLVHSDGNTYLSWLHQRPGQPPRLLIYKISNRFSGVPDRFSGSGAGTDFTLQISRVEAEDVGIYYCMQATQFPTFGGGTKVEIK
In experiment [3], B4 displayed an H4H581P IC50, NF-kB-luciferase, Bovine Factor Xa of 340 nM; an H4H581P IC50, NF-kB-luciferase, Human Factor Xa of 109 nM; an H4H581P IC50, NF-kB-luciferase, Human Kallikrein 14 of 256 nM; an H4H581P IC50, NF-kB-luciferase, Human Pancreatic Trypsin of 491 nM.

B5: H3M620N (antibody, V domains shown)
VH: EVQLVESGGNVVRPGGSLRLSCAASGFTFDDYGMTWVRQVPGKGLEWVSGINWNGGSTDYADSVKGRFTISRDNAKNSLYLQMNSLRAEDTALYYCARDKGFYGMDVWGQGTTVTVSS
VL: DIVMTQSPDSLAVSLGERATINCKSSQNPLYNSNKKKYLAWYQQKPGQPPKLVIYWASTRESGVPDRFSGSGSGTDFTLTITSLQAEDVAVYYCQQYYSTPYTFGQGTKLEIK
Consider B5, for which the A450 ratio (293/D9/hPAR-2rec to 293/D9 cells) in experiment [1] amounted to 1.24.

B6: H2M611N (antibody, V domains shown)
VH: EVQLLESGGGLVQPGGSLRLSCAASGFTFSSYAMTWVRQAPGKGLYWVSAISGSGGSAYYADSVKGRFTISRDNSKNTLYLQMNSLRAEDTAVYYCAKEGDSGYDLDYWGRGTLVTVSS
VL: DIQMTQSPSSLSASVGDRVTITCRARQGISNYLAWLQQKPGKAPKSLIYAASSLQSGVPSKFSGSGSGTDFTLTISSLQPEDFATYYCQQYKSSPLTFGGGTKVEIK
Consider B6, for which the A450 ratio (293/D9/hPAR-2rec to 293/D9 cells) in experiment [1] came out at 1.76.

These data come from US20110059095A1.
